Assay results taken from article PMC4990422, “Coupling between the DEAD-box RNA helicases Ded1p and eIF4A” (eLife, 2016).
Each block holds one compound with its values, some of them ahead of it.

Tests used:
[1] = molecular target: eIF4G-eIF4E complex (Saccharomyces cerevisiae) (UniProt P39935); conditions: cited from earlier work
[2] = molecular target: Ded1p (wild type, N-terminal His6-tag) (S. cerevisiae) (UniProt P06634); assay: cross-linking; formaldehyde 1% (v/v), 30 min, room temperature; Ded1p 0.3 µM, eIF4A 2 µM or as indicated, RNA 2 µM (16 bp, 25 nt 3'-overhang), 0.5 mM ADPNP-MgCl2, unwinding buffer; Western blot with α-Ded1p
eIF4A (S. cerevisiae) [3] = molecular target: T1, eIF4A (S. cerevisiae) (UniProt P10081); assay: global fit of RNA unwinding time courses to a thermodynamic model; K1/2 of a binding step calculated with the model of Figure 4A; RNA bound to the target before the step, ATP bound to Ded1p and to eIF4A
T1 sequence: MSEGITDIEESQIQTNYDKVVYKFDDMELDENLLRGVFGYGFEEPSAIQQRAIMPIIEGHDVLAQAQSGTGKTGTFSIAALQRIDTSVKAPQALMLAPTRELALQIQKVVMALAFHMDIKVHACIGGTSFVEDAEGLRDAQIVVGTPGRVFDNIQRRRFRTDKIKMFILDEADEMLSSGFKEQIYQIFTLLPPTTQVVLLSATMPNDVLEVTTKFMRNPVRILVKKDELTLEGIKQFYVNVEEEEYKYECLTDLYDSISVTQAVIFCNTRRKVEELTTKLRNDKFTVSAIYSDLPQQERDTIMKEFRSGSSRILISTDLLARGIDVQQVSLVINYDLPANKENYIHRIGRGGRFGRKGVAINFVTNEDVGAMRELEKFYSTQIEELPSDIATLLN

eIF4A (S. cerevisiae) [4] = molecular target: T1, eIF4A (S. cerevisiae); assay: global fit of RNA unwinding time courses to a thermodynamic model; K1/2 of a binding step calculated with the model of Figure 4A; RNA bound to the target before the step, ATP bound to Ded1p
eIF4A (S. cerevisiae) [5] = molecular target: T1, eIF4A (S. cerevisiae); assay: global fit of RNA unwinding time courses to a thermodynamic model; K1/2 of a binding step calculated with the model of Figure 4A; step without RNA, ATP bound to eIF4A
eIF4A (S. cerevisiae) [6] = molecular target: T1, eIF4A (S. cerevisiae); assay: global fit of RNA unwinding time courses to a thermodynamic model; K1/2 of a binding step calculated with the model of Figure 4A; RNA bound to the target before the step, no ATP
eIF4A (S. cerevisiae) [7] = molecular target: T1, eIF4A (S. cerevisiae); assay: global fit of RNA unwinding time courses to a thermodynamic model; K1/2 of a binding step calculated with the model of Figure 4A; RNA bound to the binder before the step, no ATP
eIF4A (S. cerevisiae) [8] = molecular target: T1, eIF4A (S. cerevisiae); assay: global fit of RNA unwinding time courses to a thermodynamic model; K1/2 of a binding step calculated with the model of Figure 4A; RNA bound to the target before the step, ATP bound to eIF4A
eIF4A (S. cerevisiae) [9] = molecular target: T1, eIF4A (S. cerevisiae); assay: global fit of RNA unwinding time courses to a thermodynamic model; K1/2 of a binding step calculated with the model of Figure 4A; RNA bound to the binder before the step, ATP bound to Ded1p and to eIF4A
eIF4A (S. cerevisiae) [10] = molecular target: T1, eIF4A (S. cerevisiae); assay: global fit of RNA unwinding time courses to a thermodynamic model; K1/2 of a binding step calculated with the model of Figure 4A (Kintek Global Explorer; 16 bp duplex, 25 nt 3' overhang); step without RNA and without ATP
eIF4A (S. cerevisiae) [11] = molecular target: T1, eIF4A (S. cerevisiae); assay: global fit of RNA unwinding time courses to a thermodynamic model; K1/2 of a binding step calculated with the model of Figure 4A; step without RNA, ATP bound to Ded1p and to eIF4A
eIF4A (S. cerevisiae) [12] = molecular target: T1, eIF4A (S. cerevisiae); assay: global fit of RNA unwinding time courses to a thermodynamic model; K1/2 of a binding step calculated with the model of Figure 4A; RNA bound to the binder before the step, ATP bound to Ded1p
eIF4A (S. cerevisiae) [13] = molecular target: T1, eIF4A (S. cerevisiae); assay: global fit of RNA unwinding time courses to a thermodynamic model; K1/2 of a binding step calculated with the model of Figure 4A; RNA bound to the binder before the step, ATP bound to eIF4A
eIF4A (S. cerevisiae) [14] = molecular target: T1, eIF4A (S. cerevisiae); assay: global fit of RNA unwinding time courses to a thermodynamic model; K1/2 of a binding step calculated with the model of Figure 4A; step without RNA, ATP bound to Ded1p
Ded1p-eIF4A-eIF4G = molecular target: T2, Ded1p-eIF4A-eIF4G (Saccharomyces cerevisiae, UniProt P06634); assay: global fit of thermodynamic model to RNA unwinding data; format: biochemical; conditions: unwinding reactions, RNA 16 bp with 25 nt 3' overhang; fitted with energy-conservation constraints; RNA-bound complex; some ATP constants given only as limits
T2 construct: gene DED1; His6-Ded1p, His6-eIF4A, GST-S-tag-eIF4G1-His; eIF4G preparation contains eIF4E; with ATP-dependent RNA helicase eIF4A; Eukaryotic initiation factor 4F subunit p150; Eukaryotic translation initiation factor 4E
T2 sequence (P06634 2-604, one chain of several): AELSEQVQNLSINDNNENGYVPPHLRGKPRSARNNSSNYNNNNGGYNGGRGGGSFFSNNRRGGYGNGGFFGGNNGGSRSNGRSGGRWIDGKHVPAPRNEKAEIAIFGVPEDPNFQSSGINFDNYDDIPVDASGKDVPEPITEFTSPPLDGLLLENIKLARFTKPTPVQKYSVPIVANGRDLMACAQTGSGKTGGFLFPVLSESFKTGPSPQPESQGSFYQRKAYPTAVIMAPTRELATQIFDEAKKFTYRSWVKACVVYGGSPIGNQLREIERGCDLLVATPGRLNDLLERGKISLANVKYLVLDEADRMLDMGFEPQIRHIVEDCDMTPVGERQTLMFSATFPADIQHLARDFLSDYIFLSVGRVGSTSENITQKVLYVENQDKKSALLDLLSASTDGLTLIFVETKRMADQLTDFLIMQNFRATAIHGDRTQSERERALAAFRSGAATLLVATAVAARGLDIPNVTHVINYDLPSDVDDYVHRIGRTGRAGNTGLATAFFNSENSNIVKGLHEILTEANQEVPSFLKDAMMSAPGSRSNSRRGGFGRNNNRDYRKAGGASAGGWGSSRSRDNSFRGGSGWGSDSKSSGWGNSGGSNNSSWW
T2 sequence (P39935 whole entry partner, one chain of several): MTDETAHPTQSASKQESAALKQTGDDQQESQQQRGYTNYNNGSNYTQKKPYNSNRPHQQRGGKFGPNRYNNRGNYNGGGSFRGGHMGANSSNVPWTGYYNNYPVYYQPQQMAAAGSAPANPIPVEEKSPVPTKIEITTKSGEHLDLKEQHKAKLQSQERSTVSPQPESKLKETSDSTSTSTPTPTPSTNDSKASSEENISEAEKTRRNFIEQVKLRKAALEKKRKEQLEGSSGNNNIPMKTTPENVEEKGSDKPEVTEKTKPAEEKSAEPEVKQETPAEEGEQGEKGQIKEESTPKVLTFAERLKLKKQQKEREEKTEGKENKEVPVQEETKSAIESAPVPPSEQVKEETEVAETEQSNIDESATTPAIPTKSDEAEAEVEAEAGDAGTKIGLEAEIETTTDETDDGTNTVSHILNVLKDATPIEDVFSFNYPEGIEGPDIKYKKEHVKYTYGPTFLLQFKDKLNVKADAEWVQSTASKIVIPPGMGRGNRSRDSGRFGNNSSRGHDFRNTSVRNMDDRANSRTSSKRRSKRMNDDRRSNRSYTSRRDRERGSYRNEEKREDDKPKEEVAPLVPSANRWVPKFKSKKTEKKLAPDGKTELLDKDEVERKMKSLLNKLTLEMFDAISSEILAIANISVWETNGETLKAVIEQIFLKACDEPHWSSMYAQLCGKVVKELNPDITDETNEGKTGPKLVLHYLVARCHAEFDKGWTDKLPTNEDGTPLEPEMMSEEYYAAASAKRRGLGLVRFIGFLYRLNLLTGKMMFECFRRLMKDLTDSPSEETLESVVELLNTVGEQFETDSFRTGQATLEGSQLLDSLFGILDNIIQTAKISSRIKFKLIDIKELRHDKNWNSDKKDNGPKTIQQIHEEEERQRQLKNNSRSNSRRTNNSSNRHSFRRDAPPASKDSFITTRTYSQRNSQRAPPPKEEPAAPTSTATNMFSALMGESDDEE

Ded1p, sequence (P06634 whole entry): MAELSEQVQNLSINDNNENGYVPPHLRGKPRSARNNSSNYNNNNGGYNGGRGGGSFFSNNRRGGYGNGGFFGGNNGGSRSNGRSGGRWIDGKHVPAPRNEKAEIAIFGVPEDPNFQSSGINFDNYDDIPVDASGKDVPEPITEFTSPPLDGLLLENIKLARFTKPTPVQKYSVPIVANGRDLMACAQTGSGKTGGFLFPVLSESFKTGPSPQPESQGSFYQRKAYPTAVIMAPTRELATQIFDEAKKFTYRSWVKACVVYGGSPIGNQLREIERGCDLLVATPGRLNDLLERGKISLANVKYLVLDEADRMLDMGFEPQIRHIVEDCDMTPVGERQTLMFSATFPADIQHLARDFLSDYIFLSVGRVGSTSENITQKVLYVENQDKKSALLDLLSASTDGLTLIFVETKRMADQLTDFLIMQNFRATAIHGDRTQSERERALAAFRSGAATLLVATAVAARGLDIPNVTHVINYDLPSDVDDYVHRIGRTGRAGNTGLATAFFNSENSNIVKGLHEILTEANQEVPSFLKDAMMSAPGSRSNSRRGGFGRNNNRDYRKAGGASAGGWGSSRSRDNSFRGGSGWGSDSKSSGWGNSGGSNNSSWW
eIF4G-eIF4E complex (Saccharomyces cerevisiae), sequence (P39935 whole entry, chain 1 of 2): as the sequence (P39935 whole entry partner, one chain of several) above
eIF4G-eIF4E complex (Saccharomyces cerevisiae), sequence (P07260 whole entry, chain 2 of 2, further chain): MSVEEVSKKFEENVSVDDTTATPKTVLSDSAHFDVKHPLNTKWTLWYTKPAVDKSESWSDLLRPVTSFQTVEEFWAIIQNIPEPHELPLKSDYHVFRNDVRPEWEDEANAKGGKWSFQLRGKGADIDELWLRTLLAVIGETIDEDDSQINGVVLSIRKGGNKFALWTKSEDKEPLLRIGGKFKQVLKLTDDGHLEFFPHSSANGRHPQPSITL
Ded1p (wild type, N-terminal His6-tag), sequence (P06634 whole entry): as the sequence (P06634 whole entry) above

Compound: eIF4A (from UniProt P10081)
Kd [1]: < 30 nM

stoichiometry N [2]: 3
Compound: Ded1p (wild type, N-terminal His6-tag) (from UniProt P06634 1-604) (enzyme; other documents disagree on this pair)

Kd (eIF4A (S. cerevisiae) [3]): 89 nM | Kd (eIF4A (S. cerevisiae) [4]): 89 nM | Kd (eIF4A (S. cerevisiae) [5]): 800 nM | Kd (eIF4A (S. cerevisiae) [6]): 45 nM | Kd (eIF4A (S. cerevisiae) [7]): 270 nM | Kd (eIF4A (S. cerevisiae) [8]): 45 nM | Kd (eIF4A (S. cerevisiae) [9]): 710 nM | Kd (eIF4A (S. cerevisiae) [10]): 800 nM | Kd (eIF4A (S. cerevisiae) [11]): 800 nM | Kd (eIF4A (S. cerevisiae) [12]): 710 nM | Kd (eIF4A (S. cerevisiae) [13]): 270 nM | Kd (eIF4A (S. cerevisiae) [14]): 800 nM
Compound: Ded1p (from UniProt P06634 1-604) (enzyme; other documents disagree on this pair)

Compound: Nc1ncnc2c1ncn2[C@@H]1O[C@H](COP(=O)(O)OP(=O)(O)OP(=O)(O)O)[C@@H](O)[C@H]1O [ATP]
K1/2 (Ded1p-eIF4A-eIF4G): ATP binding to Ded1p-eIF4G-eIF4A-RNA complex
